{"source": "patent US20220204583A1", "about": "(WISCONSIN ALUMNI RESEARCH FOUNDATION, published 2022)", "binders": {"B1": {"name": "VLR-Fc-46 (Fc fusion)", "chain": "ACPSQCSCSGTTVDCSGKSLASVPTGIPTTTRWLHLHRNQLTKLEPGVFDSLTQLTYLNLGGNQLTALPVGVFDKLTNLKELKLYSNQLQALSEGLFDRLGKLQHLDLSKNQLKSIPHGAFDRLSSLTHAYLFGNPWDCECRDIMYLRNWVADHTSIVMRWDGKAVNDPDSAKCAGTNTPVRAVTEASTSPSKCPGYVAT", "notes": "Dimeric recombinant VLR-rabbit IgG-Fc fusion secreted from HEK293F cells; also called VLR 46; VLR46; not shown: rabbit IgG-Fc from vector pIRES-VLR-Fc, C-terminal of the VLR"}, "B2": {"name": "VLR-Fc-30 (Fc fusion)", "chain": "ACPSQCSCSGTTVDCSGKSLASVPTGIPTTTQILRLYRNQITKLEPGVFDSLTQLTYLNLGGNQLTALPVGVFDKLTNLKELKLYSNQLQALSEGLFDRLGKLQHLDLSKNQLKSIPHGAFDRLSSLTHAYLFGNPWDCECRDIMYLRNWVADHTSIVMRWDGKAVNDPDSAKCAGTNTPVRAVTEASTSPSKCPGYVAT", "notes": "Dimeric recombinant VLR-rabbit IgG-Fc fusion secreted from HEK293F cells; also called VLR 30; VLR30; not shown: rabbit IgG-Fc from vector pIRES-VLR-Fc, C-terminal of the VLR"}, "B3": {"name": "VLR-Fc-11 (Fc fusion)", "chain": "ACPSQCSCSGTEVRCESRSLASVPAGIPTTTRRLHLHRNQLTKLEPGVFDSLTQLTYLNLGGNQLTALPVGVFDKLTNLKELKLYSNQLQALSEGLFDRLGKLQHLDLSKNQLKSIPHGAFDRLSSLTHAYLFGNPWDCECRDIMYLRNWVADHTSIVMRWDGKAVNDPDSAKCAGTNTPVRAVTEASTSPSKCPGYVAT", "notes": "Dimeric recombinant VLR-rabbit IgG-Fc fusion secreted from HEK293F cells; also called VLR 11; VLR11; not shown: rabbit IgG-Fc from vector pIRES-VLR-Fc, C-terminal of the VLR"}}, "assay_in_all_cases": "competition of live bEnd.3 (MBEC) cell surface binding by excess recombinant receptor ectodomain", "key": {"[1]": {"molecular_target": "T1, recombinant transferrin receptor ectodomain (UniProt Q62351 89-763, limits assumed)", "T1 construct": "extracellular domain; Bought; also called rTfR; TfR", "T1 sequence (Q62351 89-763 limits assumed)": "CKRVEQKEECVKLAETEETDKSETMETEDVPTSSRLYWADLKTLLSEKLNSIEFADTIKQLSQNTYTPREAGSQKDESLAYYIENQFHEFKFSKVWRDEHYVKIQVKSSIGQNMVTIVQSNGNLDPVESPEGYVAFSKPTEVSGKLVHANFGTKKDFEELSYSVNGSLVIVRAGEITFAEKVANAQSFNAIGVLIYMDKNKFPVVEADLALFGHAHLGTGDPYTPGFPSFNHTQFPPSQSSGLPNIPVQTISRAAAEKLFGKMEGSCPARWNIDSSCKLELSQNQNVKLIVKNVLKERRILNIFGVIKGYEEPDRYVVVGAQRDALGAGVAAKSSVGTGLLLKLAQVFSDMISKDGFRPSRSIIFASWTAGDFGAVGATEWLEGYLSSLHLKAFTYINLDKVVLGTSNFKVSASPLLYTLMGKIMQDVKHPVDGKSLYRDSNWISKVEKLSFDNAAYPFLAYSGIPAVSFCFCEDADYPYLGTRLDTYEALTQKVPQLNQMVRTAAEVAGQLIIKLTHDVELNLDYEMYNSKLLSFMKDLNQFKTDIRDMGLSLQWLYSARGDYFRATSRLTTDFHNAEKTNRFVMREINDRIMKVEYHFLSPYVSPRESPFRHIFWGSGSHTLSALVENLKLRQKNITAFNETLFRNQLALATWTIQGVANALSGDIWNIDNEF", "method": "(§1) Competition assay. 2 μM recombinant receptor ecto-domain proteins, rIR (R&D systems, 7544-MR), rLDLR (R&D systems, 2255-LD), and rTfR (Sino Biologics, 50741-M07H) were incubated with 200 nM VLR-Fc proteins in serum-free complete growth media for 30 minutes and then applied to serum-starved bEnd.3 cells in 96-well plates to allow for VLR-Fc binding to cell surface receptors. Plates were incubated at 4° C. for 2 hours. After extensive washing with ice cold PBS cells were fixed with 2% PFA, permeabilized, labeled with IRDye reagents, and analyzed as described above."}, "[2]": {"molecular_target": "T2, recombinant insulin receptor ectodomain (UniProt P15208 28-946, limits assumed)", "T2 construct": "extracellular domain; Bought; The chain make-up (alpha/beta) is not described; also called rIR; IR", "T2 sequence (P15208 28-946 limits assumed)": "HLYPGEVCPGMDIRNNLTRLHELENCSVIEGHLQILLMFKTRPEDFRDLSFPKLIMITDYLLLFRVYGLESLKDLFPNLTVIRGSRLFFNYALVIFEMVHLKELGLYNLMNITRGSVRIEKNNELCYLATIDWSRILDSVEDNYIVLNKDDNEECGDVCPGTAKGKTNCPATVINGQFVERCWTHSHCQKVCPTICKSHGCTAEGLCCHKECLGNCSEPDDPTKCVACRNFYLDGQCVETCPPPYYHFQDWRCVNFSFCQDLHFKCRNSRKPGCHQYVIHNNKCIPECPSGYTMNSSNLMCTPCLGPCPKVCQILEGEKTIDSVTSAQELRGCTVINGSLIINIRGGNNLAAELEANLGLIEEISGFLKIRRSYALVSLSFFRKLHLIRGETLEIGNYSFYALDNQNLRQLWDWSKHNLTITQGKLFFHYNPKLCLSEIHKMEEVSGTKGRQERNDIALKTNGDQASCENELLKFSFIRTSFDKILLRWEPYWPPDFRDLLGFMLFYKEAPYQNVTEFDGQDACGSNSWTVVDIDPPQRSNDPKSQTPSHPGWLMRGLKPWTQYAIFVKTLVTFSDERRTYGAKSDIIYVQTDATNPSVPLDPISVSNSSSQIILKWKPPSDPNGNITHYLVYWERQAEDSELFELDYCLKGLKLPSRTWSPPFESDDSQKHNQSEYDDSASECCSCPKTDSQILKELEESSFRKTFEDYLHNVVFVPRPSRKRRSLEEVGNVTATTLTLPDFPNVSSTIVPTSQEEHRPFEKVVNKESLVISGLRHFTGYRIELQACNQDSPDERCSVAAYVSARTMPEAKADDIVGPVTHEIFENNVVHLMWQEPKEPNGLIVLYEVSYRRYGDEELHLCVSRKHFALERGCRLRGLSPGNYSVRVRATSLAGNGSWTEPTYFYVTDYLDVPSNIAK", "method": "as §1"}, "[3]": {"molecular_target": "T3, recombinant low-density lipoprotein receptor ectodomain (UniProt P35951 22-790, limits assumed)", "T3 construct": "extracellular domain; Bought; also called rLDLR; LDLR", "T3 sequence (P35951 22-790 limits assumed)": "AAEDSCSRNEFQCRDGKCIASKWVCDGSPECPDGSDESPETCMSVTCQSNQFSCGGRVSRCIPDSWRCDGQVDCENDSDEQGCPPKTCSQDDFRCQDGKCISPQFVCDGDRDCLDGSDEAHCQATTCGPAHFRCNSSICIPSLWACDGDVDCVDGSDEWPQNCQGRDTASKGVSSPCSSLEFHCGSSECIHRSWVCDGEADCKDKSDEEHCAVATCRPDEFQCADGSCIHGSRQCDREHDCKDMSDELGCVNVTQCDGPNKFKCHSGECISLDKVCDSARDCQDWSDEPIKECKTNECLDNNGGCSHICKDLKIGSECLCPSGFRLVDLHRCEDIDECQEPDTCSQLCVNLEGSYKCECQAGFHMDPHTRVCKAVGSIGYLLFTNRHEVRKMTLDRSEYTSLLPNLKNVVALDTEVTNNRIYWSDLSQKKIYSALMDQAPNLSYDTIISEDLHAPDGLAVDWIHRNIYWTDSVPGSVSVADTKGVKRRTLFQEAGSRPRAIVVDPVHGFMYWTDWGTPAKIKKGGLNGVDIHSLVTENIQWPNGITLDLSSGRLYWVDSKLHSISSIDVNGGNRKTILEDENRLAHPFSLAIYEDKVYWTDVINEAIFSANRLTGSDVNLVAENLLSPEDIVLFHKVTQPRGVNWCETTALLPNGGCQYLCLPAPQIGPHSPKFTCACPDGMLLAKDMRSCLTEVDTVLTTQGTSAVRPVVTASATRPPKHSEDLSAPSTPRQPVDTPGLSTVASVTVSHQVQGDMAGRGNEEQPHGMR", "method": "as §1"}}, "data": [{"binder": "B1", "values": [{"measurement": "binding result", "setting": "[1]", "value": "no binding (tested: 2 µM receptor ectodomain, 200 nM VLR-Fc)"}, {"measurement": "binding result", "setting": "[2]", "value": "no binding (tested: 2 µM receptor ectodomain, 200 nM VLR-Fc)"}, {"measurement": "binding result", "setting": "[3]", "value": "no binding (tested: 2 µM receptor ectodomain, 200 nM VLR-Fc)"}]}, {"binder": "B2", "values": [{"measurement": "binding result", "setting": "[1]", "value": "no binding (tested: 2 µM receptor ectodomain, 200 nM VLR-Fc)"}, {"measurement": "binding result", "setting": "[2]", "value": "no binding (tested: 2 µM receptor ectodomain, 200 nM VLR-Fc)"}, {"measurement": "binding result", "setting": "[3]", "value": "no binding (tested: 2 µM receptor ectodomain, 200 nM VLR-Fc)"}]}, {"binder": "B3", "values": [{"measurement": "binding result", "setting": "[1]", "value": "no binding (tested: 2 µM receptor ectodomain, 200 nM VLR-Fc)"}, {"measurement": "binding result", "setting": "[2]", "value": "no binding (tested: 2 µM receptor ectodomain, 200 nM VLR-Fc)"}, {"measurement": "binding result", "setting": "[3]", "value": "no binding (tested: 2 µM receptor ectodomain, 200 nM VLR-Fc)"}]}]}
